Assay results taken from patent publication US20050158838.
Numbering of substitutions follows the chain as printed.

Columns and labels:
[1] = target: T1, phage isolate 5-A08 display polypeptide
T1 chain: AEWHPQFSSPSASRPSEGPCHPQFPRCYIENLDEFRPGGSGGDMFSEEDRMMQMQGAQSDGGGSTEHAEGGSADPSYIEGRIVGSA

DINDDRSLF test peptide = target: T2, DINDDRSLF test peptide
T2 chain: DINDDRSLF

GNYTDRMFI test peptide = target: T3, GNYTDRMFI test peptide
T3 chain: GNYTDRMFI

[2] = target: T4, GDDDDKIYV (positive control test peptide)
T4 chain: GDDDDKIYV

GNYTDRYFI test peptide = target: T5, GNYTDRYFI test peptide
T5 chain: GNYTDRYFI

[3] = target: T6, phage isolate 5-H04 display polypeptide
T6 chain: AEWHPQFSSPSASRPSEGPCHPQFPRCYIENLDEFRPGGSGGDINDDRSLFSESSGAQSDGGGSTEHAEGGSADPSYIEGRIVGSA

GNYTDRRFI test peptide = target: T7, GNYTDRRFI test peptide
T7 chain: GNYTDRRFI

NKAKDRMFI test peptide = target: T8, NKAKDRMFI test peptide
T8 chain: NKAKDRMFI

[4] = target: T9, AVLSNVMFI (negative control test peptide)
T9 chain: AVLSNVMFI

[5] = target: T10, phage isolate 5-B05 display polypeptide
T10 chain: T6 chain with D43S, I44L, N45D, S49T, L50V, F51S, S52P, E53K, S54F, S55W

GDDDDK-β naphthylamine = target: T11, GDDDDK-β naphthylamine
T11 chain: GDDDDK

[6] = target: T12, phage isolate 5-H11 display polypeptide ((Asp)4-Lys-containing recognition sequence)
T12 chain: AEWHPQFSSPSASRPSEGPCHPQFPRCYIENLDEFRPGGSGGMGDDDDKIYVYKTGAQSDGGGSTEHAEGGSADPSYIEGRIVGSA

B1: recombinant light chain enterokinase (Novagen, Madison, Wis.) (protein)
chain: IVGGSDSREGAWPWVVALYFDDQQVCGASLVSRDWLVSAAHCVYGRNMEPSKWKAVLGLHMASNLTSPQIETRLIDQIVINPHYNKRRKNNDIAMMHLEMKVNYTDYIQPICLPEENQVFPPGRICSIAGWGALIYQGSTADVLQEADVPLLSNEKCQQQMPEYNITENMVCAGYEAGGVDSCQGDSGGPLMCQENNRWLLAGVTSFGYQCALPNRPGVYARVPRFTEWIQSFLH
- enterokinase cleavage rate, phage ELISA (release of streptavidin-bound phage at 30 nM or 130 nM enterokinase) [1]: the cleavage rate for ... 5-H11 (SEQ ID NO:194) was slower than for at least three of the other isolates, i.e., 5-A08 (SEQ ID NO:137), 5-B05 (SEQ ID NO:145) and 5-H04 (SEQ ID NO:188)
- Cleavage Rate (DINDDRSLF test peptide): 1.43 nmol/min
- cleavage by 20U recombinant light chain enterokinase, 36-48 hrs, HPLC (DINDDRSLF test peptide): all digestions were carried to completion (except for the negative control which was not cleaved at all)
- rate relative to standard substrate (fold of standard substrate) (DINDDRSLF test peptide): 3.1
- ratio (Va/Vb) against reference peptide GDDDDK-βNA, equal to the ratio of kcat/Km (DINDDRSLF test peptide): 30
- Cleavage Rate (GNYTDRMFI test peptide): 0.81 nmol/min
- cleavage by 20U recombinant light chain enterokinase, 36-48 hrs, HPLC (GNYTDRMFI test peptide): all digestions were carried to completion (except for the negative control which was not cleaved at all)
- rate relative to standard substrate (fold of standard substrate) (GNYTDRMFI test peptide): 1.8
- ratio (Va/Vb) against reference peptide GDDDDK-βNA, equal to the ratio of kcat/Km (GNYTDRMFI test peptide): 3.5
- cleavage by 20U recombinant light chain enterokinase, 36-48 hrs, HPLC [2]: all digestions were carried to completion (except for the negative control which was not cleaved at all)
- rate relative to standard substrate (fold of standard substrate) [2]: 0.7
- ratio (Va/Vb) against reference peptide GDDDDK-βNA, equal to the ratio of kcat/Km [2]: 1
- Cleavage Rate (GNYTDRYFI test peptide): 0.24 nmol/min
- cleavage by 20U recombinant light chain enterokinase, 36-48 hrs, HPLC (GNYTDRYFI test peptide): all digestions were carried to completion (except for the negative control which was not cleaved at all)
- rate relative to standard substrate (fold of standard substrate) (GNYTDRYFI test peptide): 0.5
- enterokinase cleavage rate, phage ELISA (release of streptavidin-bound phage at 30 nM or 130 nM enterokinase) [3]: isolate 5-H04 (SEQ ID NO:188) shown in Table 5 was the most readily cut
- Cleavage Rate (GNYTDRRFI test peptide): 0.18 nmol/min
- cleavage by 20U recombinant light chain enterokinase, 36-48 hrs, HPLC (GNYTDRRFI test peptide): all digestions were carried to completion (except for the negative control which was not cleaved at all)
- rate relative to standard substrate (fold of standard substrate) (GNYTDRRFI test peptide): 0.4
- Cleavage Rate (NKAKDRMFI test peptide): 0.26 nmol/min
- cleavage by 20U recombinant light chain enterokinase, 36-48 hrs, HPLC (NKAKDRMFI test peptide): all digestions were carried to completion (except for the negative control which was not cleaved at all)
- rate relative to standard substrate (fold of standard substrate) (NKAKDRMFI test peptide): 0.6
- cleavage by 20U recombinant light chain enterokinase, 36-48 hrs, HPLC [4]: No cleavage occurred with the negative control peptide (SEQ ID NO:198)
- enterokinase cleavage rate, phage ELISA (release of streptavidin-bound phage at 30 nM or 130 nM enterokinase) [5]: the cleavage rate for ... 5-H11 (SEQ ID NO:194) was slower than for at least three of the other isolates, i.e., 5-A08 (SEQ ID NO:137), 5-B05 (SEQ ID NO:145) and 5-H04 (SEQ ID NO:188)
- rate relative to standard substrate (fold of standard substrate) (GDDDDK-β naphthylamine): 1
- enterokinase cleavage rate, phage ELISA (release of streptavidin-bound phage at 30 nM or 130 nM enterokinase) [6]: the cleavage rate for the (Asp)4-Lys-containing recognition sequence 5-H11 (SEQ ID NO:194) was slower than for at least three of the other isolates
